Assay results published in patent US20120172293A1 (Takeda / Millennium, published 2012).
Starred links: 1 amine or outer side, 2 acyl side, 3 side chain; linkers in the order of their positions; H or OH if unused. Non-standard residues stand in square brackets, D forms with d. *: point of attachment. Asn(Me) = N-omega-methylasparagine, CNC(=O)C[C@H](N[*:1])C(=O)[*:2]; Phe(4-NH2) = Nc1ccc(C[C@H](N)C(=O)O)cc1; Cyclohexanecarbonyl = O=C(C1CCCCC1)*; Arg(Me) = CNC(=N)NCCC[C@H](N)C(=O)O; 4Pal = N[C@@H](Cc1ccncc1)C(=O)O; Cha = N[C@@H](CC1CCCCC1)C(=O)O; Dap = NC[C@H](N)C(=O)O; Bz = O=C(c1ccccc1)*

Tests used:
[1] = target: human Y2 receptor (human) (UniProt P49146); assay: cell-based or functional assay
human Y2 receptor (human), sequence (P49146 whole entry): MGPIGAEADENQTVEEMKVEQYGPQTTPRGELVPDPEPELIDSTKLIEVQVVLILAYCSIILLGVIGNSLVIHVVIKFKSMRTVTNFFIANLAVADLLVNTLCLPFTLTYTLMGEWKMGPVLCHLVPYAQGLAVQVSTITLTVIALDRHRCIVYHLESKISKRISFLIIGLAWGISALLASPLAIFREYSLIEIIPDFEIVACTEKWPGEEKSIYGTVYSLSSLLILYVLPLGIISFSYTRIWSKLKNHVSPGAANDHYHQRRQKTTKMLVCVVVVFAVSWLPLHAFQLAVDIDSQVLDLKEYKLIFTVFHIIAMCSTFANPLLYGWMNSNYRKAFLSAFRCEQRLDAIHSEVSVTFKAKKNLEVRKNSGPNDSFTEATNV

[2] = target: human Y2 receptor (human) (UniProt P49146); assay: RBA: [125I]-PYY displacement, hY2R/CHO membranes

B1: Benzoyl-[Cha27,36, Ile28, Phe(4NH2)31]-PYY(25-36) (peptide)
peptide: Bz-RH[Cha]INL[Phe(4-NH2)]TRQR[Cha]-NH2
SMILES: CC[C@H](C)[C@H](NC(=O)[C@H](CC1CCCCC1)NC(=O)[C@H](Cc1c[nH]cn1)NC(=O)[C@H](CCCNC(=N)N)NC(=O)c1ccccc1)C(=O)N[C@@H](CC(N)=O)C(=O)N[C@@H](CC(C)C)C(=O)N[C@@H](Cc1ccc(N)cc1)C(=O)N[C@H](C(=O)N[C@@H](CCCNC(=N)N)C(=O)N[C@@H](CCC(N)=O)C(=O)N[C@@H](CCCNC(=N)N)C(=O)N[C@@H](CC1CCCCC1)C(N)=O)[C@@H](C)O
**Q.** B1 was tested. Which GBA EC50 Ratio (vs PYY(3-36)), [35S]GTPγS [1] did it give?
**A.** 5.4

**Q.** What about the IC50 Ratio (vs PYY(3-36)) [2] of the same binder?
**A.** 5

B2: Cyclohexanecarbonyl-[Cha27,36, Ile28,31, Asn(Me)29]-PYY(25-36) (peptide)
peptide: Cyclohexanecarbonyl-RH[Cha]I[Asn(Me)]LITRQR[Cha]-NH2
SMILES: CC[C@H](C)[C@H](NC(=O)[C@H](CC1CCCCC1)NC(=O)[C@H](Cc1c[nH]cn1)NC(=O)[C@H](CCCNC(=N)N)NC(=O)C1CCCCC1)C(=O)N[C@@H](CC(=O)NC)C(=O)N[C@@H](CC(C)C)C(=O)N[C@H](C(=O)N[C@H](C(=O)N[C@@H](CCCNC(=N)N)C(=O)N[C@@H](CCC(N)=O)C(=O)N[C@@H](CCCNC(=N)N)C(=O)N[C@@H](CC1CCCCC1)C(N)=O)[C@@H](C)O)[C@@H](C)CC
**Q.** How did the GBA EC50 Ratio (vs PYY(3-36)), [35S]GTPγS [1] turn out when B2 was run?
**A.** 37

**Q.** What about the IC50 Ratio (vs PYY(3-36)) [2] of the same binder?
**A.** 76

B3: Benzoyl-[Cha27,36, Ile28, Dap31]-PYY(25-36) (peptide)
peptide: Bz-RH[Cha]INL[Dap]TRQR[Cha]-NH2
SMILES: CC[C@H](C)[C@H](NC(=O)[C@H](CC1CCCCC1)NC(=O)[C@H](Cc1c[nH]cn1)NC(=O)[C@H](CCCNC(=N)N)NC(=O)c1ccccc1)C(=O)N[C@@H](CC(N)=O)C(=O)N[C@@H](CC(C)C)C(=O)N[C@@H](CN)C(=O)N[C@H](C(=O)N[C@@H](CCCNC(=N)N)C(=O)N[C@@H](CCC(N)=O)C(=O)N[C@@H](CCCNC(=N)N)C(=O)N[C@@H](CC1CCCCC1)C(N)=O)[C@@H](C)O
**Q.** B3 was tested. Which GBA EC50 Ratio (vs PYY(3-36)), [35S]GTPγS [1] did it give?
**A.** 28

**Q.** And the IC50 Ratio (vs PYY(3-36)) [2]?
**A.** 37

B4: Benzoyl-[Cha27,36, Ile28,31, Phe(4NH2)30]-PYY(25-36) (peptide)
peptide: Bz-RH[Cha]IN[Phe(4-NH2)]ITRQR[Cha]-NH2
SMILES: CC[C@H](C)[C@H](NC(=O)[C@H](CC1CCCCC1)NC(=O)[C@H](Cc1c[nH]cn1)NC(=O)[C@H](CCCNC(=N)N)NC(=O)c1ccccc1)C(=O)N[C@@H](CC(N)=O)C(=O)N[C@@H](Cc1ccc(N)cc1)C(=O)N[C@H](C(=O)N[C@H](C(=O)N[C@@H](CCCNC(=N)N)C(=O)N[C@@H](CCC(N)=O)C(=O)N[C@@H](CCCNC(=N)N)C(=O)N[C@@H](CC1CCCCC1)C(N)=O)[C@@H](C)O)[C@@H](C)CC
**Q.** How did the GBA EC50 Ratio (vs PYY(3-36)), [35S]GTPγS [1] turn out when B4 was run?
**A.** 6.6

**Q.** And the IC50 Ratio (vs PYY(3-36)) [2]?
**A.** 12

B5: Benzoyl-[Cha27,36, Ile28, Pya(4)31]-PYY(25-36) (peptide)
peptide: Bz-RH[Cha]INL[4Pal]TRQR[Cha]-NH2
SMILES: CC[C@H](C)[C@H](NC(=O)[C@H](CC1CCCCC1)NC(=O)[C@H](Cc1c[nH]cn1)NC(=O)[C@H](CCCNC(=N)N)NC(=O)c1ccccc1)C(=O)N[C@@H](CC(N)=O)C(=O)N[C@@H](CC(C)C)C(=O)N[C@@H](Cc1ccncc1)C(=O)N[C@H](C(=O)N[C@@H](CCCNC(=N)N)C(=O)N[C@@H](CCC(N)=O)C(=O)N[C@@H](CCCNC(=N)N)C(=O)N[C@@H](CC1CCCCC1)C(N)=O)[C@@H](C)O
**Q.** For B5, which GBA EC50 Ratio (vs PYY(3-36)), [35S]GTPγS [1] is on record?
**A.** 8.5

**Q.** And the IC50 Ratio (vs PYY(3-36)) [2]?
**A.** 7.6

B6: Benzoyl-[Cha27,36, Ile28, Arg(Me)31]-PYY(25-36) (peptide)
peptide: Bz-RH[Cha]INL[Arg(Me)]TRQR[Cha]-NH2
SMILES: CC[C@H](C)[C@H](NC(=O)[C@H](CC1CCCCC1)NC(=O)[C@H](Cc1c[nH]cn1)NC(=O)[C@H](CCCNC(=N)N)NC(=O)c1ccccc1)C(=O)N[C@@H](CC(N)=O)C(=O)N[C@@H](CC(C)C)C(=O)N[C@@H](CCCNC(=N)NC)C(=O)N[C@H](C(=O)N[C@@H](CCCNC(=N)N)C(=O)N[C@@H](CCC(N)=O)C(=O)N[C@@H](CCCNC(=N)N)C(=O)N[C@@H](CC1CCCCC1)C(N)=O)[C@@H](C)O
**Q.** What does the source list for B6?
**A.** GBA EC50 Ratio (vs PYY(3-36)), [35S]GTPγS [1]: 15; IC50 Ratio (vs PYY(3-36)) [2]: 18
